This assay concerns the target T1, MBP–FlaA (C. jejuni flagellin FlaA, amino acids 177–482) (C. jejuni, biotinylated (EZ-Link NGS-PEG4-Biotin kit) in the BLI).
T1 chain: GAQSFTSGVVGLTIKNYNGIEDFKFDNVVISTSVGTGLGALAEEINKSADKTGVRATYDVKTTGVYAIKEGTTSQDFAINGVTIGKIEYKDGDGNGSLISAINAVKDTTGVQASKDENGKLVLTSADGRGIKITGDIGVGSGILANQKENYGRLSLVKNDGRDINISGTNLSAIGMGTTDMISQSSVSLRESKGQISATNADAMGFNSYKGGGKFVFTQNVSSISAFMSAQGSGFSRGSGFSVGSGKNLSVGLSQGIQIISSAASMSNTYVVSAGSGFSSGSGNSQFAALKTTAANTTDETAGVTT
Put plainly: BLI.

B1: aa682 (VHH)
VHH: QVQLVESGGGLVQAGGSLRVSCTASVSTFSINALGWYRQAPGKARELVAAIGSDGTVYYTDSVKGRFTISRDNAKNTVSLQMSSLKPEDTAVYYCNAAGKRIGSDGSIWFAVASFGSWGQGTQVTVSS
For orientation: koff means a measure of how fast the partners let go of each other. A high value points to fast dissociation. On to B1, for which the koff was found to be 0.024 s⁻¹.

Source of the values: PMC9200632 (2022).
